Source: patent US20260000597A1 (priority 2018, published 2026)

target: AchR (Homo sapiens, UniProt P02708); assay: ELISA of screened peptide phages on AchR versus streptavidin (OD450); format: binding; details: ELISA of selected 11-mer (L2) peptide phages on AchR, absorbance at 450 nm; Spep-2 positive control
Procedure, shortened: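 Phage supernatants from 4th–5th round plaques, in 2% BSA, applied 1 h at 30 °C to wells coated with 5 μg/ml AchR or streptavidin. Bound phage detected with HRP anti-M13 and TMB at OD450; value given as AchR/streptavidin signal ratio.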

AchR, sequence (P02708 21-457): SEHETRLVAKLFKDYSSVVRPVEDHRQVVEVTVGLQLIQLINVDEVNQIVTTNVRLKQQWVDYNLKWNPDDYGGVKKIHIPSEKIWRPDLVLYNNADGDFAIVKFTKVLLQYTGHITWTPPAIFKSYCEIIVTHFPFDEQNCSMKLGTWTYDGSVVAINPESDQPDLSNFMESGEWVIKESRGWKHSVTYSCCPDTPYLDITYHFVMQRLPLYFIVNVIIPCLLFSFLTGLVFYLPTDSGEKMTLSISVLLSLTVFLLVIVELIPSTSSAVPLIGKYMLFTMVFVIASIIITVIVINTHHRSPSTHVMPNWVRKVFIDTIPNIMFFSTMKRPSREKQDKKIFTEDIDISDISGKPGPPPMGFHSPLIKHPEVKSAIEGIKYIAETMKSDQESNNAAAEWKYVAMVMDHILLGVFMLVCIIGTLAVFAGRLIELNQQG

Substance	OD
L2-14 (GMWKVRKTVFR; AchR binding peptide) [Peptide L2-14]	0.746
L2-74 (CIMRVKRMWWK; AchR binding peptide) [Peptide L2-74]	0.651
L2-54 (HHWRFKREMPR; AchR binding peptide) [Peptide L2-54]	0.609
L2-137 (CACKQRRATSR; AchR binding peptide) [Peptide L2-137]	0.452
L2-73 (PPFKFRKPLGR; AchR binding peptide) [Peptide L2-73]	0.662
L2-55 (PACRSKRDWQK; AchR binding peptide) [Peptide L2-55]	0.524
L2-2 (GIWKFRRNQCK; AchR binding peptide) [Peptide L2-2]	0.749
L2-159 (CNQKTKKIAEK; AchR binding peptide) [Peptide L2-159]	0.696
L2-102 (YTSRCKKQPRK; AchR binding peptide) [Peptide L2-102]	0.608
L2-193 (PALRMRRWCQK; AchR binding peptide) [Peptide L2-193]	0.705
L2-16 (VDVRNKKSNNR; AchR binding peptide) [Peptide L2-16]	0.77
L2-155 (NEARIKKCDVK; AchR binding peptide) [Peptide L2-155]	0.742
L2-19 (GWNRAKREESK; AchR binding peptide) [Peptide L2-19]	0.727
L2-112 (CFFKMRRCNTK; AchR binding peptide) [Peptide L2-112]	0.646
L2-141 (SSHKGKRAQSK; AchR binding peptide) [Peptide L2-141]	0.462
L2-183 (TCDRARKESFR; AchR binding peptide) [Peptide L2-183]	0.688
L2-83 (HQQKCKKTTTK; AchR binding peptide) [Peptide L2-83]	0.65

Substance	OD
L2-104 (PEDRQRKTWFK; AchR binding peptide) [Peptide L2-104]	0.563
L2-115 (VRAKHRKSSLR; AchR binding peptide) [Peptide L2-115]	0.837
L2-197 (CPYRIRRGPGK; AchR binding peptide) [Peptide L2-197]	0.768
L2-175 (CVMRCRRSEDK; AchR binding peptide) [Peptide L2-175]	0.65
L2-130 (GYDRARKGTLR; AchR binding peptide) [Peptide L2-130]	0.64
L2-106 (QRWKWRKSLAR; AchR binding peptide) [Peptide L2-106]	0.926
L2-51 (SLYRQKRHDYK; AchR binding peptide) [Peptide L2-51]	0.653
L2-44 (NMGRHKRPFLK; AchR binding peptide) [Peptide L2-44]	0.579
L2-60 (HADKFRRFNMR; AchR binding peptide) [Peptide L2-60]	0.697
L2-101 (NGVRERKWQSK; AchR binding peptide) [Peptide L2-101]	0.592
L2-158 (MMTKYKKTCCK; AchR binding peptide) [Peptide L2-158]	0.73
L2-105 (IEMKPRKFGVK; AchR binding peptide) [Peptide L2-105]	0.488
L2-48 (VSTKIKKEPQR; AchR binding peptide) [Peptide L2-48]	0.629
L2-200 (QGMKLKRIWSK; AchR binding peptide) [Peptide L2-200]	0.744
L2-45 (WIYRGRKDVAK; AchR binding peptide) [Peptide L2-45]	0.584
L2-143 (AIIKFRKVQWK; AchR binding peptide) [Peptide L2-143]	0.401
L2-41 (AEVKDKKAYYK; AchR binding peptide) [Peptide L2-41]	0.568

same assay, conditions: ELISA of selected 14-mer (L3) peptide phages on AchR, absorbance at 450 nm; Spep-2 positive control

Substance	OD
L3-157 (CMLRWKRWHMRFNP; AchR binding peptide) [Peptide L3-157]	0.731
L3-196 (IEMRYRRDCSRFVN; AchR binding peptide) [Peptide L3-196]	0.746
L3-187 (HGHKPRRWIYRMPM; AchR binding peptide) [Peptide L3-187]	0.731
L3-110 (AWAKYKKVQPKHHT; AchR binding peptide) [Peptide L3-110]	0.538
L3-148 (MMARCRRIMCRSFN; AchR binding peptide) [Peptide L3-148]	0.451
L3-154 (ENIKSRKYFVKLTW; AchR binding peptide) [Peptide L3-154]	0.766
L3-133 (VDSREKKWRQKCQC; AchR binding peptide) [Peptide L3-133]	0.566
L3-172 (VTGKGRRVTFRCMN; AchR binding peptide) [Peptide L3-172]	0.634
L3-134 (YWFRIKRAHAKGCP; AchR binding peptide) [Peptide L3-134]	0.653
L3-125 (MQEKCRRCVFKGNI; AchR binding peptide) [Peptide L3-125]	0.629
L3-124 (GAQRARKPVLRAVG; AchR binding peptide) [Peptide L3-124]	0.515
L3-102 (IMVKIRRCPARPLC; AchR binding peptide) [Peptide L3-102]	0.581
L3-166 (EYVKAKRTPWKYVV; AchR binding peptide) [Peptide L3-166]	0.629
L3-36 (AFSRIKRGVLKLLS; AchR binding peptide) [Peptide L3-36]	0.787
L3-129 (IHPRYKRHQARSCC; AchR binding peptide) [Peptide L3-129]	0.606
L3-73 (WTCRMRKYQLRTSE; AchR binding peptide) [Peptide L3-73]	0.771
L3-117 (CGHKNKKWHNRMDP; AchR binding peptide) [Peptide L3-117]	0.696

Substance	OD
L3-123 (PGERLKKEDHRASG; AchR binding peptide) [Peptide L3-123]	0.654
L3-50 (VFDKFRKTENRGVI; AchR binding peptide) [Peptide L3-50]	0.634
L3-164 (QINRVKKSDAKFCT; AchR binding peptide) [Peptide L3-164]	0.746
L3-195 (IEDKSKRFNCKECG; AchR binding peptide) [Peptide L3-195]	0.7
L3-33 (LRQRSKRVLEKLRP; AchR binding peptide) [Peptide L3-33]	0.751
L3-151 (HTLKPKRLYPRPSE; AchR binding peptide) [Peptide L3-151]	0.624
L3-2 (SFYKERKCQFRSGL; AchR binding peptide) [Peptide L3-2]	0.841
L3-26 (VPMKYRRCGNRQSN; AchR binding peptide) [Peptide L3-26]	0.802
L3-81 (PTWRHRRYCAKDIG; AchR binding peptide) [Peptide L3-81]	0.775
L3-189 (ELVKHRRLDFRDPM; AchR binding peptide) [Peptide L3-189]	0.786
L3-170 (CIFKFKKNMFKGYS; AchR binding peptide) [Peptide L3-170]	0.768
L3-63 (CPWRNRKAMIKGII; AchR binding peptide) [Peptide L3-63]	0.794
L3-59 (HVYKNRRVWGKGWP; AchR binding peptide) [Peptide L3-59]	0.659
L3-31 (LSDKKRKSLLRYDY; AchR binding peptide) [Peptide L3-31]	0.763
L3-69 (CVNRVKKSDSKGTW; AchR binding peptide) [Peptide L3-69]	0.733
L3-126 (YVDRWRRMQYKLSI; AchR binding peptide) [Peptide L3-126]	0.542

same assay, conditions: phage ELISA, absorbance at 450 nm, 5 μg/ml AchR; 4th and 5th round biopanning phages

Substance	OD
KSRRMWGR [Peptide L1-183]	0.605
KARKQEVR [Peptide L1-188]	0.618
RFRKPTDR [Peptide L1-127]	0.412
RLKRAPGR [Peptide L1-33]	0.529
RPKRSPSK [Peptide L1-117]	0.508
RDRKIHDK [Peptide L1-23]	0.712
RQKKDNQK [Peptide L1-26]	0.647
KHKKQNVR [Peptide L1-18]	0.627
KNRRADCR [Peptide L1-140]	0.381
KPKRDQSR [Peptide L1-113]	0.526
KAKKIRQR [Peptide L1-1]	0.693
KVRRVFLK [Peptide L1-132]	0.541
KNKKCVGR [Peptide L1-88]	0.562
RGKKPWWR [Peptide L1-104]	0.46
KHKRTAQR [Peptide L1-78]	0.642
RFKRLCMK [Peptide L1-15]	0.67
RTRKCVLK [Peptide L1-89]	0.551
KRKKDWWR [Peptide L1-10]	0.621
KWKRNCTK [Peptide L1-65]	0.585
KWRREQFR [Peptide L1-76]	0.588
KMRRVAPR [Peptide L1-176]	0.479
RGKRHWHR [Peptide L1-179]	0.633
KDRKVNSR [Peptide L1-97]	0.546
KIRRVTNK [Peptide L1-162]	0.668
KGKRDSNK [Peptide L1-51]	0.66
RHKRMLWR [Peptide L1-131]	0.505
RHRKYVDK [Peptide L1-152]	0.484
KYKKQHTK [Peptide L1-41]	0.613
KPKRSAPR [Peptide L1-125]	0.345
RSKKSLYR [Peptide L1-53]	0.78
